According to PMC5390082 (Scientific Reports, 2015):

Target: T1, Trifunctional enzyme (TFP), ECHA/ECHB, immunopurified from human macrophage extract (human (endogenous in THP-1), UniProt P40939 37-763; P55084 34-474)
T1 construct: also called immunopurified human TFP
Assay: SPR; Biacore 3000; […]; 20 mM Tris-HCl pH 8.0, 50 mM NaCl, 5 mM EDTA, 0.005% P20, 1 mM DTT; […]
Conditions: both partners purified

T1 sequence (P40939 37-763, chain 1 of 2): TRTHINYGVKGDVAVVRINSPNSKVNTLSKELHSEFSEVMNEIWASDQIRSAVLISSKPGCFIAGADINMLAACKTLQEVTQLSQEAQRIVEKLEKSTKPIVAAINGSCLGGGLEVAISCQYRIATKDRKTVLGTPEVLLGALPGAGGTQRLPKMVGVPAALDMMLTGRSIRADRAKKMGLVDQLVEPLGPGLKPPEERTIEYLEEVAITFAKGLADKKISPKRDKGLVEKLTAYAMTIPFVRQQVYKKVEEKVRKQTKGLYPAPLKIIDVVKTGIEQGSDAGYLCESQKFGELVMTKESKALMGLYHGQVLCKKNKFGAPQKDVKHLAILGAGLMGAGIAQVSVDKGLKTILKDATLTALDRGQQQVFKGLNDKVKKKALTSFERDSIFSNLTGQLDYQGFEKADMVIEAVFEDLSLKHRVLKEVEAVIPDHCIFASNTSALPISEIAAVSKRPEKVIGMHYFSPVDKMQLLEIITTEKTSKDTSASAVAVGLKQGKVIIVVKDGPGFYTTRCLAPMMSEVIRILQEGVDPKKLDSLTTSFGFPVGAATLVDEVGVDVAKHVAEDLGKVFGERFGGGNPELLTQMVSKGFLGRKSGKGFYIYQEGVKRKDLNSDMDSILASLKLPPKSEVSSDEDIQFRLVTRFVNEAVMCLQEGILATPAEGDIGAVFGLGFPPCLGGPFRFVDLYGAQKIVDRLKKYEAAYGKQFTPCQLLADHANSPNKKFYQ
T1 sequence (P55084 34-474, chain 2 of 2): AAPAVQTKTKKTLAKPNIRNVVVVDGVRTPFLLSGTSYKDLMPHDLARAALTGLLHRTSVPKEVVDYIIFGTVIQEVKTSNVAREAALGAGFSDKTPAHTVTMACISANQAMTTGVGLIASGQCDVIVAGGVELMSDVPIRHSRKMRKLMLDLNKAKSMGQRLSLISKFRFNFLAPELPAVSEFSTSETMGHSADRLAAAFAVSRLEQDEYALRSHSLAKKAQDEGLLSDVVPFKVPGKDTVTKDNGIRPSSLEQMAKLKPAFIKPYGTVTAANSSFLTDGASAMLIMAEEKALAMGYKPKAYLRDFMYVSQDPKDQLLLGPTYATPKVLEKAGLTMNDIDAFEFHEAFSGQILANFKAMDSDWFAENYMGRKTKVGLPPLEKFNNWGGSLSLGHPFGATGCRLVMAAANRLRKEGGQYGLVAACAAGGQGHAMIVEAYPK

B1: Mycobacterium tuberculosis protein tyrosine phosphatase PtpA wt (enzyme)
chain: MSDPLHVTFVCTGNICRSPMAEKMFAQQLRHRGLGDAVRVTSAGTGNWHVGSCADERAAGVLRAHGYPTDHRAAQVGTEHLAADLLVALDRNHARLLRQLGVEAARVRMLRSFDPRSGTHALDVEDPYYGDHSDFEEVFAVIESALPGLHDWVDERLARNGPS
binding result: binds
